The text below walks through data of patent US20190345446A1 (BROAD INSTITUTE, published 2019).

In assay [1] the target is T1, STAT3 (mouse, endogenous) (mouse, UniProt P42227 2-770).
T1 construct: Endogenous intracellular protein
The experiment in a line: co-immunoprecipitation with anti-Fas antibody and Protein G beads from EL4 mouse T cell line, Western blot. As for the experimental part:
(§1) For DISC assembly, 1*10⁸ EL4 cells or 5-7*10⁷ MACS sorted primary mouse CD4 cells were stimulated for 15 minutes with either biotinylated anti-Fas antibody (Jo2, 2.5 μg/ml) and streptavidin ([…], Thermo Scientific) or with multimerized recombinant human Fas ligand (aa 139-281) fused at the N-terminus to mouse ACRP30headless (aa 18-111) and a FLAG-tag (MegaFasL, Adipogen) at a final concentration of 100 ng/ml as indicated in the figure legends. MegaFasL was dissolved in H₂O that was used as vehicle. For immunoprecipitation (IP) experiments, cells were then washed twice with ice-cold PBS, lysed in ice-cold IP buffer containing 30 mM Tris HCL, 1% Triton-X100, 150 mM NaCl, 2 mM EDTA, 10% glycerol, 1 mM PMSF, phosphatase inhibitors (HALT, Thermo Scientific) and protease inhibitors (Roche). Immuoprecipitation was performed immediately after lysis using protein G magnetic Dynabeads (Life Technologies) with three consecutive washes with IP buffer. For phosphorylation studies, sorted naïve T cells were stimulated with the cytokines as indicated, then washed with PBS, and either lysed in IP buffer or cytoplasmic and nuclear fractions were extracted using NE-PER reagents (Thermo Scientific) following the manufacturer's protocol. […]
(In general: Immunoblotting shows a protein as a band on a membrane.)

Assay [2] has as its target T2, STAT4 (mouse, endogenous) (mouse, UniProt P42228 1-749).
T2 construct: Endogenous intracellular protein
T2 sequence (looked up): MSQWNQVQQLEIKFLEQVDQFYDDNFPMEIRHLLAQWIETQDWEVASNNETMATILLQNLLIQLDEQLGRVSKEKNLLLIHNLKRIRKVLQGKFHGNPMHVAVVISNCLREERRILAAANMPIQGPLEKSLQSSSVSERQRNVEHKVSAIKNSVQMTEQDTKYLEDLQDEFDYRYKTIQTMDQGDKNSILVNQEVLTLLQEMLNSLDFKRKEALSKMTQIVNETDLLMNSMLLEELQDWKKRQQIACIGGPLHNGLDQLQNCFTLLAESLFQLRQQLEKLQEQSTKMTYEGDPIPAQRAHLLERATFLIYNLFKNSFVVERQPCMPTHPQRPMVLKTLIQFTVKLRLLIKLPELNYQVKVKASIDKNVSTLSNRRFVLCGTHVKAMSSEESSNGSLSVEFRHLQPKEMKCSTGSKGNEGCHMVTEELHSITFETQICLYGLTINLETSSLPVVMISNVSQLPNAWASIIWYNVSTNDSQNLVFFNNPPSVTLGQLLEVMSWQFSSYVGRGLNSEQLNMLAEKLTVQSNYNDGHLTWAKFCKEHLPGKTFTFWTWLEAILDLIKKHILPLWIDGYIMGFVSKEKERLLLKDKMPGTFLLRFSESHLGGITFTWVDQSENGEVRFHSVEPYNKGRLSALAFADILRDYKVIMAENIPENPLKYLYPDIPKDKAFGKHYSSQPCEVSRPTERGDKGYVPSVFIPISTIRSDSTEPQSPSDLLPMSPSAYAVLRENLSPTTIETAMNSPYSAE
The assay is described as above. As for the experimental part: as §1

T1 sequence (P42227 2-770 limits assumed): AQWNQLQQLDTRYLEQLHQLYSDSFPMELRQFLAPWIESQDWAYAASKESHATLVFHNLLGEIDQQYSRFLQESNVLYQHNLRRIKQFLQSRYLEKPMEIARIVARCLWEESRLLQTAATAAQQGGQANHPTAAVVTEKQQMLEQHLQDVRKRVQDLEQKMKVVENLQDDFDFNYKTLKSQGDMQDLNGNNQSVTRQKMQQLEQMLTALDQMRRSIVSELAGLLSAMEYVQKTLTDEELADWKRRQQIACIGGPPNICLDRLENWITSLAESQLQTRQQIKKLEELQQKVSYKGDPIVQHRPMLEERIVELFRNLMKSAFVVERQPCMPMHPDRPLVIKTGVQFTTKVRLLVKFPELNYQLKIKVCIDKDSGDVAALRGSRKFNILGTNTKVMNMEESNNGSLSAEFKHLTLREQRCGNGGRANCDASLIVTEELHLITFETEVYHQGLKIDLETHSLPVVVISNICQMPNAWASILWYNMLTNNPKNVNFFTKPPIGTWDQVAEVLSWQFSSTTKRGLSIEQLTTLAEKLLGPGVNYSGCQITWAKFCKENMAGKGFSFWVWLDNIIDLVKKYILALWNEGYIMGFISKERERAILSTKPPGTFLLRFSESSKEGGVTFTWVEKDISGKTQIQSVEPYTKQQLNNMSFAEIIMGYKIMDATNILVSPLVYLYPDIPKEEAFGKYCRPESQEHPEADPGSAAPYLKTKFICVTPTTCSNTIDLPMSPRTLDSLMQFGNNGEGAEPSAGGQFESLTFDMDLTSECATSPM

B1: Fas (mouse death receptor Fas, endogenous in EL4 cells and primary mouse CD4+ T cells) (receptor, UniProt P25446 22-327, looked up)
chain: QGTNSISESLKLRRRVRETDKNCSEGLYQGGPFCCQPCQPGKKKVEDCKMNGGTPTCAPCTEGKEYMDKNHYADKCRRCTLCDEEHGLEVETNCTLTQNTKCKCKPDFYCDSPGCEHCVRCASCEHGTLEPCTATSNTNCRKQSPRNRLWLLTILVLLIPLVFIYRKYRKRKCWKRRQDDPESRTSSRETIPMNASNLSLSKYIPRIAEDMTIQEAKKFARENNIKEGKIDEIMHDSIQDTAEQKVQLLLCWYQSHGKSDAYQDLIKGLKKAECRRTLDKFQDMVQKDLGKSTPDTGNENEGQCLE
notes: whole, on cells; Endogenous protein; also called Fas receptor; CD95
On to B1, for which the binding result in assay [1] and in assay [2] was “no binding” each time.
